{"source": "paper doi:10.1101/2025.03.15.643416", "binders": {"B1": {"name": "T/P (RNA template/DNA primer) (DNA:RNA)", "DNA": "TGGAATCAGGTGTCGCACTCTG", "RNA": "AACAGAGUGCGACACCUGAUUCCAU"}}, "molecular_target": "MMLVRT-WT (Moloney murine leukemia virus, UniProt P03355 660-1330)", "assay": "DSF thermal shift"}
{"binder": "B1", "values": [{"measurement": "binding result", "result": "binds"}]}
